Data taken from US20170158757A1 (Bristol-Myers Squibb, published 2017).

Tests used:
human ITAC = biological target: T1, human ITAC (human, UniProt O14625 22-94); experiment: Biacore SPR
T1 construct: also called interferon-inducible T cell alpha chemoattractant; CXCL11
T1 sequence: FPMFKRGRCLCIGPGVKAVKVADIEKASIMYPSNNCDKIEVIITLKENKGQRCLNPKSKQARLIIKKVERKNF

human IP-10 [1] = biological target: T2, human IP-10 (human, UniProt P02778 22-98); experiment: cell-based or functional assay
T2 sequence: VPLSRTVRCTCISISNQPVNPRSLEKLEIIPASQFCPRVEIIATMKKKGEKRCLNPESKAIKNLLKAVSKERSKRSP

cynomolgus monkey IP-10 [2] = biological target: T3, cynomolgus monkey IP-10 (cynomolgus monkey, UniProt A0A2K5WKN6 22-98); experiment: cell-based or functional assay
T3 sequence: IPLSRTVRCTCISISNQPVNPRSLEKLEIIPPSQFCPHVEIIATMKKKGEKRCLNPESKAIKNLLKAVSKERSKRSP

human IP-10 [3] = biological target: T2, human IP-10; experiment: Biacore kinetic analysis
human IP-10 [4] = biological target: T2, human IP-10; experiment: Biacore SPR, huIP-10
cynomolgus monkey IP-10 [5] = biological target: T3, cynomolgus monkey IP-10; experiment: Biacore SPR, cynoIP-10
human IP-10 [6] = biological target: T2, human IP-10; experiment: Biacore-based binding studies
mouse IP-10 = biological target: T4, mouse IP-10 (mouse, UniProt P17515 22-98); experiment: Biacore-based binding studies
T4 sequence: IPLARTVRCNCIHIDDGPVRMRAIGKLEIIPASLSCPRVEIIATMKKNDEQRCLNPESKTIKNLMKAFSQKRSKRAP

cynomolgus monkey IP-10 [7] = biological target: T3, cynomolgus monkey IP-10; experiment: cell-based or functional assay; remark: listed apart in the source
human IP-10 [8] = biological target: T2, human IP-10; experiment: SPR (Biacore) at 37 C, IgG1, human IP-10
cynomolgus monkey IP-10 [9] = biological target: T3, cynomolgus monkey IP-10; experiment: in vivo Kd estimated by PK/PD modeling in cynomolgus monkeys
human IP-10 [10] = biological target: T2, human IP-10; experiment: whole cell binding assays with I125-IP-10 (CXCR3/300.19 and KM12SM cells)
human IP-10 [11] = biological target: T2, human IP-10; experiment: Biacore SPR, huIP-10 (text: limit of detection with the Biacore is 90 pM)
human MIG [12] = biological target: T5, human MIG (human, UniProt Q07325 23-125); experiment: Biacore SPR, MIG; Biacore, lot 3007: weak measured KD for MIG, about 17000 times weaker than for huIP-10 (0.01 nM)
T5 construct: also called monokine induced by gamma interferon; CXCL9
T5 sequence: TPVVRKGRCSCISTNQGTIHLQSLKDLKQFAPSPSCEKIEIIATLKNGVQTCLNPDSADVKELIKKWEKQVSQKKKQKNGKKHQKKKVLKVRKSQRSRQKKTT

cynomolgus monkey IP-10 [13] = biological target: T3, cynomolgus monkey IP-10; experiment: in vivo Kd estimated by PK/PD modeling of free drug, free and total serum IP-10 in cynomolgus monkeys; in vivo Kd from PK/PD modeling in cynomolgus monkeys, not a direct binding assay
human MIG [14] = biological target: T5, human MIG; experiment: Biacore SPR, MIG
human MIG [15] = biological target: T5, human MIG; experiment: Biacore SPR
human IP-10 [16] = biological target: T2, human IP-10; experiment: SPR (Biacore) at 37 C, IgG1, human IP-10 (second row for IP10.1g1f)

Binder | binding result (human ITAC) | koff (human IP-10 [4]) [s⁻¹] | kon (human IP-10 [4]) [M⁻¹ s⁻¹] | Kd (cynomolgus monkey IP-10 [5]) [nM] | Kd (human IP-10 [8]) [nM] | koff (human IP-10 [8]) [s⁻¹] | kon (human IP-10 [8]) [M⁻¹ s⁻¹] | other results
IP10.44 (antibody, human IgG1, kappa, V domains shown, Human IgG1 full-length antibody; also called BMS-986184; IP10.44-g1f) VH: QVQLVESGGGVVQPGRSLRLSCAASGFTFSEYGMHWVRQAPGKGLEWVAVIGFAGLIKGYADSVKGRFTISRDNSKNTLYLQMNSLRAEDTAVYYCAREGAGSNIYYYYGMDVWGQGTTVTVSS VL: not shown | no binding | 1e-07 | 11600 | 0.2 | 0.17 | 4e-06 | 26200 | fold better potency than IP10.1, IL-6 secretion by hPBMCs (human IP-10 [1]): ~6 fold; fold greater potency relative to IP10.1, IL-12p40 secretion by hPBMCs (human IP-10 [1]): 4 fold; IC50 of free serum IP-10 suppression against free drug concentration in cynomolgus monkeys (cynomolgus monkey IP-10 [2]): 0.223 nM; estimated t1/2 (half-life of IP-10 association) (human IP-10 [3]): > 100 h; fold improvement of KD against IP10.1 (human IP-10 [6]): ≥ 50 fold; binding result (mouse IP-10): no binding; IC50 (read off the curve) (cynomolgus monkey IP-10 [7]): ~0.3 nM; fold more potent than IP10.1 (in vivo Kd) (cynomolgus monkey IP-10 [9]): ~150 fold; fold better potency than IP10.1 in blocking IP-10 binding to cells (human IP-10 [10]): ≥ 5 fold; Kd (human IP-10 [11]): 0.01 nM; Kd (human MIG [12]): 168 nM; Kd (cynomolgus monkey IP-10 [13]): 0.043 nM
IP10.52 (antibody, human IgG1, kappa, V domains shown, IgG1 full-length variant of IP10.1; also called IP10.52-g1f) VH: QVQLVESGGGVVQPGRSLRLSCTASGFTFSDYGMHWVRQAPGKGLEWVAVIGYGGLIKGYADSVKGRFTISRDNSKNTLYLQMNSLRAEDTAVYYCAREGAGSSVYYYYGMDVWGQGTTVTVSS VL: not shown | no binding | 5e-07 | 13000 | 1.43 | – | – | – | Kd (human MIG [14]): 73.5 nM; Kd (human IP-10 [4]): 0.04 nM
IP10.46 (antibody, human IgG1, kappa, V domains shown, IgG1 full-length variant of IP10.1; also called IP10.46-g1f) VH: QVQLVESGGGVVQPGRSLRLSCTASGFTFSQYGMHWVRQAPGKGLEWVAVISYGGDIKYYADSVKGRFTISRDNSKNTLYLQMNSLRAEDTAVYYCAREGEGSNIYYYYGMDVWGQGTTVTVSS VL: not shown | no binding | 1e-06 | 9600 | 0.19 | 0.12 | 2e-06 | 13500 | Kd (human MIG [14]): 77.5 nM; Kd (human IP-10 [4]): 0.11 nM
IP10.43 (antibody, human IgG1, kappa, V domains shown, IgG1 full-length variant of IP10.1) VH: QVQLVESGGGVVQPGRSLRLSCTASGFTFSSYGMHWVRQAPGKGLEWVAVIDFVGDTKYYTDSVKGRFTISRDNSKNTLYLQMNSLRAEDTAVYYCAREGAGSNIYYYYGMDVWGQGTTVTVSS VL: not shown | – | – | – | – | 1.64 | 1.7e-05 | 9300 | –
IP10.45 (antibody, human IgG1, kappa, V domains shown, IgG1 full-length variant of IP10.1; also called IP10.45-g1f) VH: QVQLVESGGGVVQPGRSLRLSCTASGFTFSKHGMHWVRQAPGKGLEWVAVIGFAGVIKSYADSVKGRFTISRDNSKNTLYLQMNSLRAEDTAVYYCAREGEGSNIYFYYGMDVWGQGTTVTVSS VL: not shown | no binding | – | – | 4.74 | – | – | – | binding result (human MIG [15]): no binding
IP10.47 (antibody, human IgG1, kappa, V domains shown, IgG1 full-length variant of IP10.1; also called IP10.47-g1f) VH: QVQLVESGGGVVQPGRSLRLSCAASGFTFSTHGMHWVRQAPGKGLEWVAVIGFGGLIKSYADSVKGRFTISRDNSKNTLYLQMNSLRAEDTAVYYCAREGDGSSLYFYYGMDVWGQGTTVTVSS VL: not shown | – | – | – | – | 0.56 | 1.4e-05 | 24000 | –
IP10.48 (antibody, human IgG1, kappa, V domains shown, IgG1 full-length variant of IP10.1; also called IP10.48-g1f) VH: QVQLVESGGGVVQPGRSLRLSCAASGFTFSNYGMHWVRQAPGKGLEWVAVIDFAGINKYYADSVKGRFTISRDNSKNTLYLQMNSLRAEDTAVYYCAREGEGSNIYFFYGMDVWGQGTTVTVSS VL: not shown | – | – | – | – | 0.34 | 5e-06 | 14100 | –
IP10.49 (antibody, human IgG1, kappa, V domains shown, IgG1 full-length variant of IP10.1; also called IP10.49-g1f) VH: QVQLVESGGGVVQPGRSLRLSCTASGFTFSQSGMHWVRQAPGKGLEWVAVIGFGGLIKSYADSVKGRFTISRDNSKNTLYLQMNSLRAEDTAVYYCAREGDGSGIYYYYGMDVWGQGTTVTVSS VL: not shown | – | – | – | – | 0.41 | 6e-06 | 14700 | –
IP10.51 (antibody, human IgG1, kappa, V domains shown, IgG1 full-length variant of IP10.1; also called IP10.51-g1f) VH: QVQLVESGGGVVQPGRSLRLSCTASGFTFSDYGMHWVRQAPGKGLEWVAVIGYGGLIKGYADSVKGRFTISRDNSKNTLYLQMNSLRAEDTAVYYCAREGAGSSIYYYYGMDVWGQGTTVTVSS VL: not shown | – | – | – | – | 0.96 | – | – | –
IP10.53 (antibody, human IgG1, kappa, V domains shown, IgG1 full-length variant of IP10.1; also called IP10.53-g1f) VH: QVQLVESGGGVVQPGRSLRLSCAASGFTFSDYGMHWVRQAPGKGLEWVAVISHNGAIKGYADSVKGRFTISRDNSKNTLYLQMNSLRAEDTAVYYCAREGDGSNIYYYYGMDVWGQGTTVTVSS VL: not shown | no binding | – | – | 0.22 | – | – | – | Kd (human MIG [14]): 54.3 nM
IP10.54 (antibody, human IgG1, kappa, V domains shown, IgG1 full-length variant of IP10.1; also called IP10.54-g1f) VH: QVQLVESGGGVVQPGRSLRLSCTASGFTFSQYGMHWVRQAPGKGLEWVAVISYGGDIKYYADSVKGRFTISRDNSKNTLYLEMNSLRAEDTAIYYCAREGEGSNIYYYYGMDVWGQGTTVTVSS VL: not shown | – | – | – | – | 0.25 | 4e-06 | 15400 | –
IP10.1 (antibody, human IgG1, kappa, V domains shown, Human IgG1 (g1f) full-length antibody; Parent antibody of all variants; also called 6A5; antibody 6A5) VH: QMQLVESGGGVVQPGRSLRLSCTASGFTFSNNGMHWVRQAPGKGLEWVAVIWFDGMNKFYVDSVKGRFTISRDNSKNTLYLEMNSLRAEDTAIYYCAREGDGSGIYYYYGMDVWGQGTTVTVSS VL: not shown | no binding | 6.8e-05 | 8000 | 14.9 | 4.18 | 0.000151 | 36200 | binding result (human MIG [15]): no binding; estimated t1/2 (half-life of IP-10 association) (human IP-10 [3]): ~3 h; Kd (human IP-10 [4]): 8.53 nM; Kd (human IP-10 [6]): ~5 nM; binding result (mouse IP-10): no binding; Kd (human IP-10 [16]): 6.27 nM; koff (human IP-10 [16]): 0.000138 s⁻¹; kon (human IP-10 [16]): 22000 M⁻¹ s⁻¹; Kd (cynomolgus monkey IP-10 [13]): 6.5 nM
